According to the nanobody polyreactivity screen of Harvey et al. (2022):

Assay: yeast display, Sf9 membrane polyspecificity reagent, FACS + sequencing; frameworks hold sequencing errors
Outline: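 Polyreactivity labels are assigned by the sorting gate from which each nanobody was recovered. The gates were low and high (top ~1%), set on anti-HA fluorescence for expression and streptavidin fluorescence for reagent binding. Before sorting, galactose-induced (36–48 hours) yeast display cells were stained for 1 hour at 4 °C with 10% biotinylated, detergent-solubilized Sf9 membrane reagent.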

Sequence	polyreactivity (PSR sort gate)
QVQLVDSGGGLVQAGGSLRLSCAASGRTIVYYAMGWYRQAPGKERELVAAIRSGGSTNYADSVKGRFTISRDNAKNTVYLQMNSLKPEDTAVYYCNAVHYYYYKGDYWGQGTQVTVSS	high polyreactivity
QVQLVESGGGLVQAGGSLRLSCAASGRTFYPYAMGWYRPAPGKERELVAAIRWSGGSTYYADSVKGRFTISRDNAKNTVYLQMNSLKPEDTAVYYCNADWKSYRGPKFDYWGQGTQVTVSS	low polyreactivity
QVQLVESGGGLVQAGGSLRLSCAASGRTFKYNAMGWYRQAPGNERELVAAISRSGGSTYYADSVKGRFTISRDNAKNTVYLQMNSLKPEDTAVYYCNAEYLWIRHIAEDYWGQGTQVTVSS	low polyreactivity
QVQLVESGGGLVQAGGSLLLICADSGITFYGNAMGWYRQAPGKERELVAAISSSGGTTYYADSVKGRFTISRDNAKNTVYLQMNSLKPEDTAVYYCNAVDGIHPYASPSFQQYDYWGQGTQVTVSS	low polyreactivity
QVQLLESGGGLVQSGGSLRLSCAASGRNFTPYAMGWYRQAPGKERELVAAITGSGGITYYADSVKGRFTISRDNAKNTVYFQMNSLKPVDTAVYYCAKDWWQSDSVGDYTHYEYDYWGQGTQVTVSS	low polyreactivity
QVQLVESGGGLVQAGGSLRLSCAASGRIFKRNTLGWYRQAPGKERELVAAITNSGITYYADSVKGRFTISRDNAKNTVYLQMNSLKPEDTAVYYCAARVIYYYGSGPYDYWGQGTQVTVSS	low polyreactivity
QVQLVESGGGLVQAGGSLRLSCAASGRIFYNNVMGCYRQAPGKERELVAAISGNGGSTYYADSVKGRFTISRDNAKNTVYLQMNSLKPEDTAVYYCAARSSFRTLIFYQKFDYWGQGSQVTVSS	low polyreactivity
QVQHVESGGGLVQAGGSLRLSCAASGSTFQMYAMGWYRQAPGKEMELVASISWSGGSTYYAVSVMGRFTISRDNAKNTFYLQMNSLKPEDTAVYYCKADFWWRYRPGAVFRSYGYWGQGTQVTVSS	low polyreactivity
QVQLVESGGGLVKAGGSLRLSCAAYGITFIRYAMGWYRQAPGKERELVAVMTRSGGRTYYADSVKGRFTISRDNAKNTVYLQMNSLKPEDTAVYYCAARAYGYDEYEYWGQGTQVTVSS	high polyreactivity
QVQLVESGGGLVQAGGSLRLSCAASGSIFYWYAMGWYRQAPGKERELVAAISRNGGNTYYADSVKGRFTISRDNAKNTVYLQMNSLKPEDTAVYYCAAQLFVRRWMDYWGQGTQVTVSS	low polyreactivity
QVQLVESGGGLVQAGGSLRLSCAASGSIFWGYAMGWYRQAPGKERELVATITYGGDSTYYADSVKGRFTISRDNAKNTVYLQMNSLKPEDTAVYYCNVGVEPYDYDYWGQGTQVTVSS	low polyreactivity
QVQLVESGGGLVQAGGSLRLSCAASGRSIYGYALGWYRQATRKERELVAAIHSGGSTYYADSVKGRFTISRDNAKNTVYLQKNSLKPEDTAVYYCAGYTAYRSRAYFYYWGQGTQVTVSS	high polyreactivity
QVQLVESGGGLVQAGGSLRLSCAASGSTFYGYAMGWYRQPPGKERELVAAITIGGRTYYADSVKGRFTISRDNAKNTVYLQMNSLKPEDTAVYYCAAAILRTVPELGSRRTYYYWGQGTQVTVSS	high polyreactivity
PVQLVESGGGLVQAGGSLRLSCAASGFIYPRYAMGWYRQAPGKEREVVAAISYSGGSTYYADSVKGRFTISRDNAKNTVYLQMNSLKPEDTAVYYCAARLFKDSWMDYWGQGTQVTVSS	high polyreactivity
QVQLVESGGGLVQAGGSLRLSCAATGSIFSSNAMGWYRQAPGKERELVAAIDYSGGRTYYADSVKGRFTISRDYEKNTVYLQMNSLKPEDTAVYYCAKLIPVHSRYDFWGQGTQVTVSS	low polyreactivity
QVQLEESGGGLVQAGGSLRISCAAYGSTFYYNVMGWYRQAPGKERELVAAITWRGDITYYADSVKGRFTISRDNAKYNVYLQMKCLKPEDTAVFYCAKRYQPSYRSNFWGEGTQVTVSS	low polyreactivity
QVHLVESGGGLVQAGGSLRLTCAASGFIFEYNAMGCYRQAPGKEREFVAAITSSGGSTYYADSVIGRFTISRDNAKNTVYLQMNSLKPEDTAVYYCARVRRSAYYKDYYYWGQGTQVTVSS	high polyreactivity
QVQLVESGGGLVQAGGSLRLSCAASGSIFYRNTMGWYRQAPGKERELVAAITRGTRTYYADSGKGRFTISRDNAKNTVYLQMNSLKPEDTAVYYCNARFVGRTGGSFDYWGQGTQVTVSS	high polyreactivity
QVQLVESGGGLVQAGGSLRLSCAASGITFFWNAMGWYRQAPGKERELVAAISSGAGTTYADSVKGRFTISRDNAKNTVYLQMNSLKPEDTAVYYCAARRYRYAYGPYNYWGQGTQVTVSS	low polyreactivity
QVQLVESGGGLVQAGGSLRLSCAASGLICGFYAMGWYRQAPGKERELVADITTSGARTYYADSVKGRFTISRDNAKNTVYLQMYSLKPEDTAVYYCNKDHSSYGASGYDYWGQGTQVTVSS	low polyreactivity
QVQLVESGGGLFQAGGSLRLSCAASGFIFGLYAMGWYRQAPGKEREFVAAISTSSGITYYADSVKGRFTISRDNAKNTVYLQMNSLKPEDTAVYDCAARGHYYDYWRQGTQVTVSS	low polyreactivity
QVQLVESGGVLVQAGGSLRLSCAASGSTFQKYTMGWYRQAPGKERELVAGISGGGSTYYADSVKGRFTISRDNAKNTVYLQMNSLKPEDTAVYSCAAETLYTGPPPRYDYWGQGTQVTVSS	low polyreactivity

Sequence	polyreactivity (PSR sort gate)
QVQLVESGGGLVQAGGSLRLSCAASGLTLGHNAMGWYRQAPGKERELVAAITNYADSVKGRFTISRDNAKNTVYLQMNSLKPEDTAVYYCAADWWRVEMDYWGQGTQVTVSS	low polyreactivity
QVQLVESGGGLVQAGGSLRLSCAASGSIFQYNTMGWYRQAPGKESELVASISWRSGSTYYADSVKGRFTISRDNAKNTVYLQMNSLKPEDTAVYYCAAQVDPWWYDAGYDYWGQGTQVTVSS	low polyreactivity
QVQLVESGGGLVQAGGSLRLTCAASGYTFRGYAMGWYRQAPGKEREFVAAINWSDGSTYYADSVKGRFTISRDNAKNTVYLQMNSLKPEDTAVYYCNADQYYRVPDNYWGQGTQVTVSS	low polyreactivity
QVQHVESGGGLVQAGGSLRLSCAASGSIFPHYAMGWYRQAPGKERELVAAISYSGGRTYYADSVKGRFTISRDNAKNTVYLQMNSLKPEDTAVYYCAKPERVLYHGDYWGQGTQVTVSS	low polyreactivity
QVQQVESGGGLVQAGGSLRLSCAASGTFGYYAMGWYRQAPGKERELVAGITWSGGSTYYADSVKGRFTISRDNAKNTVYLQMNSLKPEDTAVYYCATSSYTGYWGQGTQVTVSS	low polyreactivity
QVQLVESGGGLVQAGGSLRLSCAASGSTFDRYAMGWYRQAPRKERELVAANSWSAGRTDYADSVKGRFTISRDNAKNTVYLQMNSLKPEDTAVYYCAADYWYRTFYGYFGYDYWGQGTQVTVSS	low polyreactivity
LVQLVESGGGLVQAGGSLRLSCAASGRTFDTYVMGWYSQAPGKERELVAAITTSGTSTYADSVKGRFTISRDNAKNTVYLQMNSLKPEDTAVYYCAADGPVYYSYVDWISFNEEYWGQGTQVTVSS	low polyreactivity
QVQLVESGGGLVQAGGSLRLSCAASGSTFIHNAMGWYRQAPGNERELVAAITSGGSTYYADSVKGRFTISRDNAMNTVYLQMNSLKPEDTAVYYCNRGSWRYSTMEYWGQGTLVTVSS	high polyreactivity
QVQLVESGGGLVQAGGSLRLSCAASGSTFGRYVMGWYRQAPGKERELVAAISKNAGSTYYADSVKGRFTISRDNAKNTVYLQMNSLKPEDTAVYYCAADWRTKGYDSLGQGTQVTVSS	high polyreactivity
QVQLVESGGGLVQAGGSLRLSCAASGFIFSNNAMGWYRQAPGKERELVAAISKSGGGTSYADSVKGRFTISRDNAKNTVYLQMKSLNPEDSGVYYCAARFSQFRVDFWGQGTQVTVSS	high polyreactivity
QVQLVESGGGLVQAGGSLRLSCAASGNTFRYYAMGWYRQAPGKERELVAAINRSGGRTYYADSVKGRFTISRDNAKNTVYLQMNSLKPEDTAVYYCARSIRYGRGVYKGGYWGQGTQVTVSS	high polyreactivity
QVQLVESGGGLVQAGGSLRLSCAASGGTFPWYTKGWYRQAPGKERELVATIRGRDGSTFYADSVKGRFTISRDNAKNTVYLQMNSLKPEDTAVYYCAAVGRRKDLRWGVYYRFDYWGQGTQVTVSS	low polyreactivity
QVQLVESGGGLVQAGGSLRLSCAASGFTFQFNAMGWYRQAPGKERELVAAITWSGDSTYYADSVKGRFTISRDNAKNTVYLQMISLKPEDTAVYYCNADYGWVDTYTNYDYWGQGTQVTVSS	low polyreactivity
QVQLVESGGGLVQAGGSLRLSCASSGSIFGSYAMGWYRQPPGKESELDAAITGIGGSTYYADSVKGRFTISRDNAKNTVYLQMNSLKPEATAVYYCATRDRYRAPVVGGNYWVQGTQVTVSS	high polyreactivity
QVQLVESGGGLVQAGGSLRLSCAASGSTFGANAMGWYRQAPGKERELVAAITRGVRTHYADSVKGRFTISRDNAKNTVYLQMNSLKPEDTAVYYCNARSYPRWLRYDYWGQGTQVTVSS	low polyreactivity
QVQLVESGGGLVQAGGSLRLSSAASGSIFSDYAMGWYRQAPGKERELVAAISGTGGGTYYADSVKGRFTISRDNAKNTVYLQMNSLKPEDTAVYYCAADYVFAWWGDYYWGQGTQVTVSS	high polyreactivity
QVQLVDSGGGLVQAGGILRLSCAASGRTISSYAMGWYRQAPGKERELVAAITRTGGRTYYAYSVKGRFTISRDNAKNTVYLQMNSLKPEDTAVYYCAATGIRYGVKYYYWGQGTQVTVSS	high polyreactivity
QVQLVESGGGLVQAGGSLRLSCAASGITFKYYAMGWYRQAPGKERELVAAISRSGGTTYYADSVKGRFTISRDNAKNTVYLQMNSLKPEDTAVYYCNKYTHYYDYDYWGQGTQVTVSS	high polyreactivity
QVQLVESGGGLVQAGGSLRLSCAASGSTFGANSMGWYRQAPGKERELVAAITYSSGSTRYADSVKGRFTISRDNAKTTVYLQMNILKPEDTAVYYCAARRTNYFKLGYWGQGTQVTVSS	high polyreactivity
QVQLEESGGGLVQAGGSLRLSCAASGRTFGTYVMGWNRQATGKHRELVAAISRSGGGTYYADSVKGRFTISRDNEKNTVYLQMNSLKPEDTAVYYCADRRVVYRYYWYSAYDYWGQGTQVTVSS	high polyreactivity
QVQLVESAGGLVQAGGSLRLSCAPSGSTFYHNVMGWYSPAPGKERELVASIDTGDSTNYADSVKGRFTISRDNAKNTVYLQMNSLKPEDTAVYYCARSQAVYDGWFAKFGYWGQGTQVTVSS	low polyreactivity
